Measured values: US20100323375

Assays:
[1] = target: FLAG-APP, P05067
[2] = target: T1, FLAG-Alcalpha
T1 chain 1: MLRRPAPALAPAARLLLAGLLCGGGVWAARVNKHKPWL
T1 chain 2: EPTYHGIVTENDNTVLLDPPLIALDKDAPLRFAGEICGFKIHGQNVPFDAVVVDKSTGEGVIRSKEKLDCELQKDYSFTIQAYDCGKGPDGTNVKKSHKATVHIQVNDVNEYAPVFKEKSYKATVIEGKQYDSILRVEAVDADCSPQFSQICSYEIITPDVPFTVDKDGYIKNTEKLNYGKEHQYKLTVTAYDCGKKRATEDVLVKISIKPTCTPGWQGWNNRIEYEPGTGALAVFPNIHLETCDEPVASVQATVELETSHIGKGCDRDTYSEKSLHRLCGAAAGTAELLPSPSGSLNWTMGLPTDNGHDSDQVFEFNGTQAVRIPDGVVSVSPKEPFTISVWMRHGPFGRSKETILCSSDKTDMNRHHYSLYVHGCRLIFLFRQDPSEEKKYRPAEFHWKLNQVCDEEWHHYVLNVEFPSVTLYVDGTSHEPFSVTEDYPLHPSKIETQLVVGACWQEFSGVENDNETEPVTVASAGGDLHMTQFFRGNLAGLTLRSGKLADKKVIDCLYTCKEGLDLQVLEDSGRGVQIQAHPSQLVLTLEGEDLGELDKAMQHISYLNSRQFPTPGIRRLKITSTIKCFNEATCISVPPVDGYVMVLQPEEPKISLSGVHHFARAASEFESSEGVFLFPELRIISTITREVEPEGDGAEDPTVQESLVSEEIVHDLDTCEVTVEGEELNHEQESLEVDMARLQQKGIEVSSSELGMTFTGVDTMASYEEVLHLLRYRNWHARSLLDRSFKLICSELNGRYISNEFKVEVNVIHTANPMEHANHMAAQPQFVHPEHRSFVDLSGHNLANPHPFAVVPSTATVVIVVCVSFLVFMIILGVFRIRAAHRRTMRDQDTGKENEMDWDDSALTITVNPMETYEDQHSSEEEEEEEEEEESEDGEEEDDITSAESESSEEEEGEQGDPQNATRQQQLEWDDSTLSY

[3] = target: T2, FLAG-Alcbeta
T2 chain 1: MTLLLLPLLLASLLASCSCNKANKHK
T2 chain 2: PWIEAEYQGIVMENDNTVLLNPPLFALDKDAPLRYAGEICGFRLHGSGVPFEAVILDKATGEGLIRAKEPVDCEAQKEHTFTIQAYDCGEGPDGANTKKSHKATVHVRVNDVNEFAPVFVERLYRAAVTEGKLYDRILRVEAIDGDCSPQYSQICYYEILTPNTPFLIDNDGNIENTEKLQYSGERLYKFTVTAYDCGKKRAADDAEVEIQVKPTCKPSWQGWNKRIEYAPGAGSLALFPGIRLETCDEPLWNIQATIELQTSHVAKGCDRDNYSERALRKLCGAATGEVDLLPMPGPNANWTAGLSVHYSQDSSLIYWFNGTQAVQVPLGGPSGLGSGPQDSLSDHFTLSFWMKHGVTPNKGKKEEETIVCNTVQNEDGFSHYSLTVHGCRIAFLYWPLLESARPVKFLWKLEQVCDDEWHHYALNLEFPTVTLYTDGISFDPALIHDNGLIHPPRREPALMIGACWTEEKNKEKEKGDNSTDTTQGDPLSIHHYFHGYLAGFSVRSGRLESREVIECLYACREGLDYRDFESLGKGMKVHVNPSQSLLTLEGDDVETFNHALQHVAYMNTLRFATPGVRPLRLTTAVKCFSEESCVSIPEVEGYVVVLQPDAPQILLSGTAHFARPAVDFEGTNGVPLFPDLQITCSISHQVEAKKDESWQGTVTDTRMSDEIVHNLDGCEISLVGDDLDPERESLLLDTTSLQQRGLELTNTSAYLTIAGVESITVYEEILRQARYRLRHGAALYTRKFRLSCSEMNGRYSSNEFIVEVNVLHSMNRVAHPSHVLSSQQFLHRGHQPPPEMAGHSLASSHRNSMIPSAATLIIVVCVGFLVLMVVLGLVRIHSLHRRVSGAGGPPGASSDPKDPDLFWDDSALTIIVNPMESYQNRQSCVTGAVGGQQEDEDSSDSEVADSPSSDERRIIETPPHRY

[4] = target: T3, FLAG-Alcgamma
T3 chain 1: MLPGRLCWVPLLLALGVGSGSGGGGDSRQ
T3 chain 2: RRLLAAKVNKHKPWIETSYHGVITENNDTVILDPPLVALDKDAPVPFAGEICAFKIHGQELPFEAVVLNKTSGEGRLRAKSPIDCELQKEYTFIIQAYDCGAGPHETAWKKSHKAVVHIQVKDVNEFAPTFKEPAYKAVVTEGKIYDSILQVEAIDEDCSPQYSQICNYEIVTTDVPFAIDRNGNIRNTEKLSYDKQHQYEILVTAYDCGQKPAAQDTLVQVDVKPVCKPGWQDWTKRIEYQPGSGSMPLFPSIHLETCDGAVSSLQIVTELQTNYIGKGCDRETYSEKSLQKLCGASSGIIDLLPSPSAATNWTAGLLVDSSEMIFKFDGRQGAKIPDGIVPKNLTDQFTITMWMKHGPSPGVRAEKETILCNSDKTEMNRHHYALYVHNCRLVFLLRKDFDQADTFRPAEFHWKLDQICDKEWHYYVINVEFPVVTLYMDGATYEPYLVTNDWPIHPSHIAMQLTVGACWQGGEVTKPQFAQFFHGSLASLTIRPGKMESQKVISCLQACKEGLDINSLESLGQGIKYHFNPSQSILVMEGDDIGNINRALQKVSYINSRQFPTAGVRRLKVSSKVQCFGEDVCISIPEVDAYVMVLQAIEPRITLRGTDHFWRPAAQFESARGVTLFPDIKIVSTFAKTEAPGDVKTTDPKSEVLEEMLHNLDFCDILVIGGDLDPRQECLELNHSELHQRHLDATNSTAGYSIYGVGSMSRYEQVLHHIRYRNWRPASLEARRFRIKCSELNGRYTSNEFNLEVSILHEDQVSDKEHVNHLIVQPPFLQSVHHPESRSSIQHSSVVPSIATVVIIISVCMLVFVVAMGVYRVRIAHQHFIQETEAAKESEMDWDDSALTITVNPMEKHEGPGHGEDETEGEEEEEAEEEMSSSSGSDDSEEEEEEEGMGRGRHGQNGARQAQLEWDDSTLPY

Chain of FLAG-APP, P05067 (P05067 whole entry, looked up): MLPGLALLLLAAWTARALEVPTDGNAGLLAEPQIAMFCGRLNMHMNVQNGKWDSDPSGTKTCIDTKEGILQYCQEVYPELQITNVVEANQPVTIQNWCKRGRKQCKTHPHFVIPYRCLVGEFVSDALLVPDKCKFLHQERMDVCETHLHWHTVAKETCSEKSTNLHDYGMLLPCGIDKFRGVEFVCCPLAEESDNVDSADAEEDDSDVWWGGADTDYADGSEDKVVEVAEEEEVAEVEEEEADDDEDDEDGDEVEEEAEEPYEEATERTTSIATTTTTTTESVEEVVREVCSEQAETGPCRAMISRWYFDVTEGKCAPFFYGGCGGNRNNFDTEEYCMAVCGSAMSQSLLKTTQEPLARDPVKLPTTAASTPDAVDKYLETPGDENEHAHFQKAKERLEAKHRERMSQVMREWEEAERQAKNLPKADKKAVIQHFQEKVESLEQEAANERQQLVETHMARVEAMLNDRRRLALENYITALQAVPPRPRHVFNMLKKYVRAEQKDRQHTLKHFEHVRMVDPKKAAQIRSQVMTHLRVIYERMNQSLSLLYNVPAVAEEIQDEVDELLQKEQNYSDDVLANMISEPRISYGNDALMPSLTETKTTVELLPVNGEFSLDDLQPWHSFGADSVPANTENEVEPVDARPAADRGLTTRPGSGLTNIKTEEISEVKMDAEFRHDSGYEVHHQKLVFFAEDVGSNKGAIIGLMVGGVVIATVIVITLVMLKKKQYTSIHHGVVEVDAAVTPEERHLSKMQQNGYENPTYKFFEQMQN

B1: ADAM10 (endogenous, mouse embryonic fibroblasts) (protein)
chain: TTLAERNTCQLYIQTDHLFFKYYGTREAVIAQISSHVKAIDTIYQTTDFSGIRNISFMVKRIRINTTSDEKDPTNPFRFPNIGVEKFLELNSEQNHDDYCLAYVFTDRDFDDGVLGLAWVGAPSGSSGGICEKSKLYSDGKKKSLNTGIITVQNYGSHVPPKVSHITFAHEVGHNFGSPHDSGTECTPGESKNLGQKENGNYIMYARATSGDKLNNNKFSLCSIRNISQVLEKKRNNCFVESGQPICGNGMVEQGEECDCGYSDQCKDDCCFDANQPEGKKCKLKPGKQCSPSQGPCCTAQCAFKSKSEKCRDDSDCAKEGICNGFTALCPASDPKPNFTDCNRHTQVCINGQCAGSICEKYDLEECTCASSDGKDDKELCHVCCMKKMAPSTCASTGSLQWSKQFSGRTITLQPGSPCNDFRGYCDVFMRCRLVDADGPLARLKKAIFSPQLYENIAEWIVAHWWAVLLMGIALIMLMAGFIKICSVHTPSSNPKLPPPKPLPGTLKRRRPPQPIQQPPRQRPRESYQMGHMRR
[1]
  amount of sAPP secreted into the medium (western blot of anti-FLAG immunoprecipitate), ADAM10 (-/-) against (+/-) MEFs: ADAM (-/-) MEFs secreted sAPP (lane 2 of FIG. 1D) 40% lower than ADAM (+/-) MEFs
[2]
  amount of sAlcalpha secreted into the medium (western blot of anti-FLAG immunoprecipitate), ADAM10 (-/-) against (+/-) MEFs: The amounts of sAlcalpha, sAlcbeta, and sAlcgamma secreted by ADAM (-/-) MEFs were as low as that of APP
[3]
  amount of sAlcbeta secreted into the medium (western blot of anti-FLAG immunoprecipitate), ADAM10 (-/-) against (+/-) MEFs: The amounts of sAlcalpha, sAlcbeta, and sAlcgamma secreted by ADAM (-/-) MEFs were as low as that of APP
[4]
  amount of sAlcgamma secreted into the medium (western blot of anti-FLAG immunoprecipitate), ADAM10 (-/-) against (+/-) MEFs: The amounts of sAlcalpha, sAlcbeta, and sAlcgamma secreted by ADAM (-/-) MEFs were as low as that of APP
